Data: US20240252534A1 (AUTOLUS, published 2024)
Blank lines part the entries; values can stand above or below the binder they belong to.

Columns and labels:
[1] = biological target: T1, Recombinant PSMA-His (sino biologicals) (UniProt Q04609 44-750); assay: SPR, Biacore T200, pH 7.4; antibody captured on Protein A chip, PSMA-His as analyte, 1:1 Langmuir fit
T1 construct: also called soluble PSMA; recombinant soluble PSMA; not shown: His tag
Protocol: (§1) Kinetic affinity for soluble PSMA at different pH was determined using Biacore T200 instrument. Recombinant purified antibodies were captured on a Protein A chip #6, pre-equilibrated the required PH (pH7.4, pH7, pH6.5 and pH6) using buffered HBS-P+, at 10 μl/min for 60 s, aiming at 100 RU. Recombinant PSMA-His (sino biologicals) dialysed in HBS-P+buffer and adjusted to the required PH was used as analyte from 1 μM with 1:2 serial dilutions for 10 points and flown at 30 μl/min for 150 s with 300 s dissociation time. A double reference subtraction was applied. Sensograms fitted with 1:1 Langmuir model.

[2] = biological target: T1, Recombinant PSMA-His (sino biologicals); assay: SPR, Biacore T200, pH 6.5; antibody captured on Protein A chip, PSMA-His as analyte, 1:1 Langmuir fit
Protocol: as §1

[3] = biological target: T1, Recombinant PSMA-His (sino biologicals); assay: SPR, Biacore T200, pH 6; antibody captured on Protein A chip, PSMA-His as analyte, 1:1 Langmuir fit
Protocol: as §1

[4] = biological target: T1, Recombinant PSMA-His (sino biologicals); assay: SPR, Biacore T200, pH 7; antibody captured on Protein A chip, PSMA-His as analyte, 1:1 Langmuir fit
Protocol: as §1

[5] = biological target: T2, human PSMA expressed on cells (human, UniProt Q04609 1-750); assay: flow cytometry, MFI against concentration, SupT1-PSMA clone 30 (high)
T2 construct: whole, on cells; also called SupT1-PSMA; SupT1 cells expressing PSMA

[6] = biological target: T1, Recombinant PSMA-His (sino biologicals); assay: SPR, Biacore T200; VHH-Fc captured on Protein A chip, PSMA-His as analyte, 1:1 Langmuir fit
Protocol: as §1, with “PSMA” for “PSMA at different pH”, “#7” for “#6, pre-equilibrated the required PH (pH7.4, pH7, pH6.5 and pH6) using buffered HBS-P+,”, “HBS-P+ buffer” for “HBS-P+buffer and adjusted to the required PH”
Affinity was determined by surface plasmon resonance on a Biacore T200 instrument against recombinant soluble PSMA. Affinities were measured in the nM range for both antibodies (Table 3)

[7] = biological target: T2, human PSMA expressed on cells; assay: flow cytometry histograms, detection aMu-Fc 647, concentration and axis values not given

T1 sequence (Q04609 44-750 limits assumed): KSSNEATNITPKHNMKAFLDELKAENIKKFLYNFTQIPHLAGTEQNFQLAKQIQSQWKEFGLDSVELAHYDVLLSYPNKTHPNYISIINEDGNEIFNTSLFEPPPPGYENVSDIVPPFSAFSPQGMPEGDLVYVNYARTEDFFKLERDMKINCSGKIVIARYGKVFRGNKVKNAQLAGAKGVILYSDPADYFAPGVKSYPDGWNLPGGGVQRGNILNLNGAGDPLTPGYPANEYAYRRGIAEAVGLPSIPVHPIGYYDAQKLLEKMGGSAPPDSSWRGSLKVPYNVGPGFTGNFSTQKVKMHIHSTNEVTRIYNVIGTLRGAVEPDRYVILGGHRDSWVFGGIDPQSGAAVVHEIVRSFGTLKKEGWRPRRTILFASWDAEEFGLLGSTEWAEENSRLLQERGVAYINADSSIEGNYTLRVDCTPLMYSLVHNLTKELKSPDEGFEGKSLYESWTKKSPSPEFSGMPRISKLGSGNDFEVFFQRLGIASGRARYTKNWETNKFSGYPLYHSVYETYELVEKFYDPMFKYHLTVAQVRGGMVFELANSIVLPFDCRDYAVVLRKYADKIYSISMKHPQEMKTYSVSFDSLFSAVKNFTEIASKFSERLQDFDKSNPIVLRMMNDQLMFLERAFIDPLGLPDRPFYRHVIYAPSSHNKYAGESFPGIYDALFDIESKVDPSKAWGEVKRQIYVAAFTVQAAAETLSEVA
T2 sequence (Q04609 whole entry): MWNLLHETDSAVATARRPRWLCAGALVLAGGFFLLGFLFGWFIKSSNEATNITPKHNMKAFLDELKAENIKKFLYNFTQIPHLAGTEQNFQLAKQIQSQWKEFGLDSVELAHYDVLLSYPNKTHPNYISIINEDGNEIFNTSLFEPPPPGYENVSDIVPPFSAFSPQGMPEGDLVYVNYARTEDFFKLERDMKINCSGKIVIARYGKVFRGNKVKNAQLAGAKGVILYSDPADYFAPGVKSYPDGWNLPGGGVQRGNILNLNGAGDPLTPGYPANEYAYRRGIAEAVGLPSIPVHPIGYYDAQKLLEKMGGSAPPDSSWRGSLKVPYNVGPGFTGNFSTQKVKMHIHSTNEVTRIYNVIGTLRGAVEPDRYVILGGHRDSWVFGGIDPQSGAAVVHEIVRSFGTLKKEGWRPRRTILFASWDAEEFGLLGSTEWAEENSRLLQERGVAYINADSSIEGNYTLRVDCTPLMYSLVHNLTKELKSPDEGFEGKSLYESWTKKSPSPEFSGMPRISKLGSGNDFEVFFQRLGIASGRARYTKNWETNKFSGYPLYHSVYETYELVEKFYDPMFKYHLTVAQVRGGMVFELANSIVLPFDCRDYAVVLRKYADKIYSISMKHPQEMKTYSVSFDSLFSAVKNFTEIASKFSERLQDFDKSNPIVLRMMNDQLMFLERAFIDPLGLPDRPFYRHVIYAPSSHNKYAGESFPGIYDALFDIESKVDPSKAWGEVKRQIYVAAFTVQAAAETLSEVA

Kd [1]: 3.66 nM
Kd [2]: 1.71 nM
Kd [3]: 0.532 nM
Kd [4]: 3.3 nM
B1: 7A12 humanised (antibody, V domains shown)
VH: QVQLVQSGAEVKKPGASVKVSCKASGYTFTSSWMNWVRQAPGQGLEWMGRIYPGDGDTNYAQKFQGRVTMTRDTSISTAYMELSRLRSDDTAVYYCARGTGYLWYFDVWGQGTMVTVSS
VL: EIVLTQSPATLSLSPGERATLSCRASQDINENLAWYQQKPGQAPRLLIYYTSNRATGIPARFSGSGSGRDFTLTISSLEPEDFAVYYCQQYDNLPFTFGQGTKVEIKR
notes: Tested as 'recombinant purified antibody' captured on a Protein A chip; also called hu7A12; AU number 42396

Kd [1]: 2.29 nM
Kd [2]: 1.02 nM
Kd [3]: 0.574 nM
Kd [4]: 1.77 nM
B2: 7A12 (antibody, V domains shown)
VH: QFQLQQSGPELVKPGASVKISCKASGYAFSSSWMNWVRQRPGKGLEWIGRIYPGDGDTTYNGNFKDKATLTAAKSSSTAYIQINSLTSEDSAVYFCARGTGYLWYFDVWGAGTTVTVSS
VL: DIQMTQSPSSLSTSLGGKVTITCKASQDINENVAWYQHKPGKGPRLLIWYTSALQSGIPSRFSGSGSGRDYSFSISNLEPEDIATYYCQQYDNLPFTFGSGTKLEIKR
notes: Tested as 'recombinant purified antibody' captured on a Protein A chip; also called mu7A12; AU number 30531

EC50 (read off the curve) [5]: ~1 µg/mL
B3: dAb clone B8, C Myc tagged (VHH)
VHH: QVQLQQSGGGLVQAGGSLRLSCAASGRTYGRYVMGWFRQIPGKEREFVAAISWSGSNTNYADSVKGRFTISRDNAKNTLYLQMNSLKPEDTAVYYCAASGQWIIPTTARGYDDWGQGTQVTVSS
notes: Monomeric dAb from IPTG-induced TG1 supernatant, detected with anti-C Myc; also called B08; not shown: C-Myc tag

Kd [6]: 212 nM
B4: B08 VHH-Fc (Fc fusion)
chain: B3 VHH
notes: also called B8; clone B8; not shown: Fc part of the VHH-Fc format

EC50 (read off the curve) [5]: ~0.7 µg/mL
B5: dAb clone G7, C Myc tagged (VHH)
VHH: QVQLQESGGGSVQAGGSLRLSCAASERTFSTYGTGWFRQAPGKEREFVAGISGRGGYTSYIDSVKGRFTTSRDNAKNTVYLQMNSLKPEDTAVYYCAADRRMVWGTVRSPDEYDSWGQGTQVTVSS
notes: Monomeric dAb from IPTG-induced TG1 supernatant, detected with anti-C Myc; also called G07; not shown: C-Myc tag

Kd [6]: 316 nM
B6: G07 VHH-Fc (Fc fusion)
chain: B5 VHH
notes: also called G7; clone G7; not shown: Fc part of the VHH-Fc format

binding result [7]: binds
B7: NGS2 dAb in murine IgG2A-Fc format (Fc fusion)
chain: QVQLQESGGGWVQAGGSLRLSCAASGRTSRTYTMGWFRQAPGKDGVFVAGITWSTWSSDKTQYLDSVNSRFTISRDNARNTVYLQMNNLKPEDTAVYYCAATPRYYGVAVPTTRGPYDYWGQGTQVTVSS
notes: also called clone 2; dAb 2; not shown: murine IgG2A Fc
